Laboratory results reported in article PMC3463621.

Biological target: recombinant collagen α1(XI) amino terminal domain (NTD) (UniProt P20909)
Assay: SPR

Chain of UniProt P20909 (P20909 35-1561): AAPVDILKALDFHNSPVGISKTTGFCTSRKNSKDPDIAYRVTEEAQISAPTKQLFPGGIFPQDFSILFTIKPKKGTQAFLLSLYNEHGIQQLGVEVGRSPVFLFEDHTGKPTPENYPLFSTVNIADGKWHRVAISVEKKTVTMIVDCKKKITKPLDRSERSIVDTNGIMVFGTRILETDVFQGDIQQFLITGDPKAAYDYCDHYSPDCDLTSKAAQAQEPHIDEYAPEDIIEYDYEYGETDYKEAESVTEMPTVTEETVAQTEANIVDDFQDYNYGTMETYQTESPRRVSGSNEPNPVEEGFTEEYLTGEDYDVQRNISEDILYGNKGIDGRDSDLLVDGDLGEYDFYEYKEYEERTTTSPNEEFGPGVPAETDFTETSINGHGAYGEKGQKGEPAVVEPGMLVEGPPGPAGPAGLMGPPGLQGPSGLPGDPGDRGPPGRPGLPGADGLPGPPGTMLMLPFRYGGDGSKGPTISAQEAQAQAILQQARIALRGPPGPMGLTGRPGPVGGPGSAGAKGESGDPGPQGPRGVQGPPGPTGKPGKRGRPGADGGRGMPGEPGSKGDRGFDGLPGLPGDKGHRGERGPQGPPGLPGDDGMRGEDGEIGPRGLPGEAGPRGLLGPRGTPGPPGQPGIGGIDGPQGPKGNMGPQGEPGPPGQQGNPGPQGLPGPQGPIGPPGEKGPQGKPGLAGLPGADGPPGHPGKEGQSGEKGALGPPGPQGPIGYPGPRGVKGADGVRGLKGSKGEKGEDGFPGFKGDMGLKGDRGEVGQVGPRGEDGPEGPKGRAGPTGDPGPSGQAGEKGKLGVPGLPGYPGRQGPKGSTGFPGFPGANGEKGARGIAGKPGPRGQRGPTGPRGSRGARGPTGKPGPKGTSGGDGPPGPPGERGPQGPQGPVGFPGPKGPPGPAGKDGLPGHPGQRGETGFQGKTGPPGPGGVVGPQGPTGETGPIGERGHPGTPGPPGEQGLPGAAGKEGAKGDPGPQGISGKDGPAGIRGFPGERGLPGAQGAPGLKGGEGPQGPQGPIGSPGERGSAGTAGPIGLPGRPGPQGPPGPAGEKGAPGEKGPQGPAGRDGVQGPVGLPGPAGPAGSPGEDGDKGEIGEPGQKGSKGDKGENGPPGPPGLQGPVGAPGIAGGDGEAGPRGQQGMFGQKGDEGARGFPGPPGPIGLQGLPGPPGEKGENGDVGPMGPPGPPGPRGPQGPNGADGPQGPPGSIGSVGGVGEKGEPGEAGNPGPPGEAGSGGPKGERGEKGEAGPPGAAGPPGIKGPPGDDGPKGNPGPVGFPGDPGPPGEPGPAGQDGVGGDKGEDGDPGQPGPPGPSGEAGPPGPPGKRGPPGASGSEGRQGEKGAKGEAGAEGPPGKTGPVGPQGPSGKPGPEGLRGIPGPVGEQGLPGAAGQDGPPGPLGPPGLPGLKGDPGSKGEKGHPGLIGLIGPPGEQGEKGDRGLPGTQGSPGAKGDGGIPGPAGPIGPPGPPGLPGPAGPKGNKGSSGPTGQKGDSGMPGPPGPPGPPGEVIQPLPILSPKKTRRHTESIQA

With “Thrombospondin 1 (R&D Systems) (from UniProt P07996 19-1170) (natural protein)” as the substance, how does the Kd read?
The Kd was 100 nM.
